Assay results as given in paper PMC10082768.

How the values were obtained:
[1] = target: MUC2-C, the C-terminal part of the human MUC2 mucin, fully glycosylated (human); test: polyacrylamide gel electrophoresis, non-reduced against reduced; purified MUC2-C; band of around 300 kDa non-reduced, about 150 kDa after reduction
[2] = target: MUC2-C, the C-terminal part of the human MUC2 mucin, fully glycosylated (human); test: SEC-SAXS; 25 °C; 25 mM HEPES pH 7.4, 100 mM NaCl, 10 mM CaCl2; beamline BM29, ESRF

“MUC2-C, the C-terminal part of the human MUC2 mucin, fully glycosylated (domain or fragment)” gave a stoichiometry N [1] of 2 and a stoichiometry N [2] of 2.
